Data published in US20240270821A1, “GIP/GLP1/GCG TRI-RECEPTOR AGONISTS AND USES THEREOF” (priority 2023, published 2024).
Starred links: 1 amine or outer side, 2 acyl side, 3 side chain; linkers in the order of their positions; H or OH if unused. Non-standard residues stand in square brackets, D forms with d. Groups on a side chain read outwards from the residue. No end group written: not given here. *: point of attachment. C20 diacid = O=C(O)CCCCCCCCCCCCCCCCCCC(=O)*; C18 diacid = O=C(O)CCCCCCCCCCCCCCCCC(=O)*; αMePhe(2-F) = C[C@](N)(Cc1ccccc1F)C(=O)O; γGlu = O=C(O)[C@H](CCC(=O)[*:2])N[*:1]; NMeY = CN[C@@H](Cc1ccc(O)cc1)C(=O)O; αMeF = C[C@](N)(Cc1ccccc1)C(=O)O; αMeL = CC(C)C[C@](C)(N)C(=O)O; Orn = NCCC[C@H](N)C(=O)O; AEEA = NCCOCCOCC(=O)O; Aib = CC(C)(N)C(=O)O

B1: Example 311 (peptide)
chain: Y[Aib]QGT[αMePhe(2-F)]TSDYSKILDKIAQK([AEEA-γGlu-C20 diacid])AFIEYLLEGGPSSGEPPPSEG-NH2
B2: Example 304 (peptide)
chain: Y[Aib]QGT[αMePhe(2-F)]TSDYSKLLDKIAQKAFIEYLIEGGPSSGEPPPSEG-NH2
modifications: not fully specified (residue 20)
B3: Example 289 (peptide)
chain: Y[Aib]QGTFTSDYSI[αMeL]LDKK([AEEA-γGlu-C20 diacid])AQRAFIEYLLEGGPSSGEPPPSEG-NH2
modifications: not fully specified
B4: Example 329 (peptide)
chain: Y[Aib]QGTFTSDYSI[αMeL]LDKQAAKQFVEWLLA[Aib]GPSSGEPPPSEG
modifications: not fully specified (residue 20)
B5: Example 296 (peptide)
chain: Y[Aib]QGT[αMePhe(2-F)]TSDYSILLDKIAAK([AEEA-γGlu-C20 diacid])AFIEYLIEGGPSSGEPPPSEG-NH2
B6: Example 315 (peptide)
chain: Y[Aib]QGTFTSDYSK[αMeL]LDKK([AEEA-γGlu-C20 diacid])AQQAFVQWLIEGGPSSGEPPPSEG-NH2
B7: Example 300 (peptide)
chain: [NMeY][Aib]QGT[αMeF]TSDYSILLDKIAAK([AEEA-AEEA-γGlu-C20 diacid])AFVQWLIAGGPSSGEPPPSEG-NH2
B8: Example 308 (peptide)
chain: Y[Aib]QGTFTSDYSI[αMeL]LDKIAAK([AEEA-AEEA-γGlu-C20 diacid])[Orn]FVQYLIAGGPSSGEPPPSEG-NH2
B9: Example 301 (peptide)
chain: [NMeY][Aib]QGT[αMeF]TSDYSILLDKQAAK([AEEA-AEEA-γGlu-C20 diacid])AFVQWLIAGGPSSGEPPPSEG-NH2
B10: Example 288 (peptide)
chain: YXQGTFTSDFSIXLDKKAQXAFIEYLLEGGPSSGEPPPSEG
modifications: synthetic construct; SITE 2: note = 2-Aminoisobutyric Acid; SITE 13: note = alpha-methyl-leucine; SITE 17: note = Lysine is chemically modified through conjugation of the epsilon-amino group of the Lysine side chain with (2-[2-(2-Amino-ethoxy)-ethoxy]-acetyl)-(gamma-Glu)-CO-(CH2) 18-CO2H; SITE 20: n
B11: Example 305 (peptide)
chain: Y[Aib]QGTFTSDYSI[αMeL]LDKQAAKAFVEWLLAGGPSSGEPPPSEG-NH2
modifications: not fully specified (residue 20)
B12: Example 295 (peptide)
chain: Y[Aib]QGT[αMePhe(2-F)]TSDYSKLLDKIAQK([AEEA-γGlu-C20 diacid])AFIEYLLEGGPSSGEPPPSEG-NH2
B13: Example 302 (peptide)
chain: [NMeY][Aib]QGT[αMeF]TSDYSILLDKQAAK([AEEA-AEEA-γGlu-C20 diacid])AFVQWLIEGGPSSGEPPPSEG-NH2
B14: Example 307 (peptide)
chain: Y[Aib]QGT[αMeF]TSDYSILLDKIAAK([AEEA-AEEA-γGlu-C18 diacid])NFIEYLVEGGPSSGEPPPSEG-NH2
B15: Example 309 (peptide)
chain: Y[Aib]QGT[αMePhe(2-F)]TSDYSKLLDKQAQK([AEEA-γGlu-C20 diacid])QFIEYLIEGGPSSGEPPPSEG-NH2

Legend:
Test in all cases: cell-based or functional assay
[1] = target: T1, human GIP receptor (human) (UniProt P48546)
T1 sequence (looked up): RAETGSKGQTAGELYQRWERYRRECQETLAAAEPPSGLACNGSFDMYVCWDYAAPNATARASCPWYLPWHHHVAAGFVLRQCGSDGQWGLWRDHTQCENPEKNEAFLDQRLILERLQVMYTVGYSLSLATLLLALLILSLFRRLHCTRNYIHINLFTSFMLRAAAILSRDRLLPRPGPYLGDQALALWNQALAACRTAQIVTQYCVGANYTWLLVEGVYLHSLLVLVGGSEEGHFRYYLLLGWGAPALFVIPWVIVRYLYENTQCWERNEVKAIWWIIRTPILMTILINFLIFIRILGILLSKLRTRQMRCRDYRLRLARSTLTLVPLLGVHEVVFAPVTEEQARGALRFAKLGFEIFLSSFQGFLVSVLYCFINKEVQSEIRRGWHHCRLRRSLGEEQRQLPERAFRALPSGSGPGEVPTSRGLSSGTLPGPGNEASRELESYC

hGLP-1R = hGLP-1R (Homo sapiens, UniProt P43220)
[2] = target: Pro-Link-tagged Human GLP-1R (human) (UniProt P43220)
[3] = target: human glucagon receptor (human) (UniProt P47871)
[4] = target: human GLP-1R (SNAP-GLP-1R expressed in HEK293 cells) (human) (UniProt P43220)
Chain of human GLP-1R (SNAP-GLP-1R expressed in HEK293 cells) (human) (P43220 24-463): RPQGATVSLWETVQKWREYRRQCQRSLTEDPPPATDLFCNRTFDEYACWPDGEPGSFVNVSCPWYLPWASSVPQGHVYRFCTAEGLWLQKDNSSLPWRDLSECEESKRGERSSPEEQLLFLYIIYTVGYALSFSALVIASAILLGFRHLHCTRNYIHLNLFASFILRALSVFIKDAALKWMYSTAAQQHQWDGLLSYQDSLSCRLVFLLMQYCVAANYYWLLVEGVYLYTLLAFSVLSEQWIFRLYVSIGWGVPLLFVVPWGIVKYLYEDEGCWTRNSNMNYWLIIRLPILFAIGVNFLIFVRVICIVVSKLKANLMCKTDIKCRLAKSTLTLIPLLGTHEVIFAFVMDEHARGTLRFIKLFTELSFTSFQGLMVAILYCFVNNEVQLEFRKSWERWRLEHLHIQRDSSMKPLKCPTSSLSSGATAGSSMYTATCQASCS

Chain of human glucagon receptor (human) (P47871 26-477): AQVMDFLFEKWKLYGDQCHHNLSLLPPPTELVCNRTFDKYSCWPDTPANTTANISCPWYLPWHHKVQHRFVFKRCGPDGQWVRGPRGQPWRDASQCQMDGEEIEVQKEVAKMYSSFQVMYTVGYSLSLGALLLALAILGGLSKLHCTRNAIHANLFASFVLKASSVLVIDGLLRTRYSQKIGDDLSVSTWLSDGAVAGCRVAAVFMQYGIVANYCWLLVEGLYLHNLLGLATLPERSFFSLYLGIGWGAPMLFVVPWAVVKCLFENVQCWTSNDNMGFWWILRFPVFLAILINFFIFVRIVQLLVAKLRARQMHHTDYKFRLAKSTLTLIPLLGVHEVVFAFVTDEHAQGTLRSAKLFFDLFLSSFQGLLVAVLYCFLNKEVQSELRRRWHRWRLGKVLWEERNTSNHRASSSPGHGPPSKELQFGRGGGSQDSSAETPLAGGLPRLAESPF
Chain of Pro-Link-tagged Human GLP-1R (human) (P43220 24-463): as the sequence (P43220 24-463) above
Chain of hGLP-1R (P43220 24-463): as above

Binder	Relative cAMP EC50 [1] [nM]	cAMP Rel EC50 (1% HSA) [1] [nM]	Relative cAMP EC50 (hGLP-1R) [nM]	cAMP Rel EC50 (1% HSA) (hGLP-1R) [nM]	% Stimulation Max [2] [%]	hGLP1R β-arrestin Rel EC50 [2] [nM]	Relative cAMP EC50 [3] [nM]	cAMP Rel EC50 (1% HSA) [3] [nM]	cAMP Rel EC50 (in the presence of 1% HSA) [1] [nM]	GLP1R Internalization EC50 [4] [nM]	Internalization % TOP [4] [%]	cAMP Rel EC50 (in the presence of 1% HSA) (hGLP-1R) [nM]	cAMP Rel EC50 (in the presence of 1% HSA) [3] [nM]
B1	0.113	26.1	3.36	1080	39.6	19.2	2.08	2500					
B2	0.127	48	0.551	172	47.8	9.21	2.31	1720					
B3	0.382		0.449		47.5	5.96	5.02		105	10.9	86.5	139	1750
B4	0.207	42.6	0.926	204	74.5	6.11	3.47	842		34	91.1		
B5	0.0806		0.536		55.2	14	1.72		21.8	19.2	87.2	171	517
B6	0.398	85.1	0.508	140	29.7	3.76	4.05	1560					
B7	0.0975	12.9	1.05	98	40.3	15.7	6.54	976					
B8		237	3.15	477	41.4	16.9	14.2	4950					
B9	0.722	81.8	0.641	82.4	59.1	13.2	6.73	1500					
B10	0.234		1.89		18	16.3	5.17		59.1	30.3	72.4	616	3580
B11	1	92.4	1.48	415	58.3	23.3	6.73	1500					
B12	0.126		0.831		44.1	16.4	2.15		61.1	31.4	88.4	232	605
B13	0.7	91.8	0.621	73.6	56.6	11.2	4.47	1370					
B14	0.446	65.3	0.836	209	70.8	9.86	1.68	1880					
B15	0.32	424	0.808	251	47.2	6.72	9.28	3910					
